Patent US20190309044A1, “POLYPEPTIDES AND USES THEREOF AS A DRUG FOR TREATMENT OF AUTOIMMUNE DISORDERS” (Compugen Ltd., priority 2017, published 2019)
“Also recorded” adds a separate entry of the source.

How the values were obtained:
Type in all cases: in vivo, mouse
SJL/J mice [1] = assay: Adoptive transfer R-EAE, clinical score
Method: Female SJL/J mice were primed with 50 μg of PLP139-151/CFA according to the standard laboratory protocol on day 0. On day 8 post disease induction, the inguinal lymph nodes were collected and the total lymph node cells were re-activated in culture in the presence of PLP139-151 for 3 days. At the end of culture, cells were collected and transferred into naive recipient SJL/J mice.
a. Mice were shaved (about a 1 in.×1 in, square on the back between the hind flanks) and injected with CFA/PLP139-151 emulsion at 100 μl per mouse s.c., divided between three spots on the back and flanks. Peptide and final dose given per mouse: 50 μg of PLP139-151 peptide on day 0.
b. On day 8 post priming with PLP139-151/CFA, the draining inguinal lymph nodes were collected, and single cell suspensions were prepared. Total lymph node cells were cultured at a density of 8×10^6 cells per ml in the HL-1 medium plus PLP139-151 peptide (20 μg/ml) in T75 flasks.
c. After 3 days of culture, the PLP139-151 reactivated cells were collected and counted using an hemacytometer. The number of total viable cells and the number of blast cells was determined. […]
f. Mice were scored on the indicated days, on a 0-5 disease score scale per standard laboratory protocol: 0, no abnormality; 1, limp tail; 2, limp tail and hind limb weakness; 3, hind limb paralysis; 4, hind limb paralysis and forelimb weakness; and 5, moribund. […]

[2] = system: total splenocytes and lymph node cells; assay: Ex vivo recall responses, adoptive transfer R-EAE; settings: day 45; treatment from onset of remission
Method: On day 45 (unless otherwise indicated) following cell transfer, spleen and cervical lymph nodes or CNS from 3 representative mice of each group were collected, and the total cells were activated ex vivo at 0.5×10^6 cells per well with either OVA323-339, PLP139-151, PLP178-191, MBP84-104 (20 ug/ml), or anti-CD3 (1 ug/ml). Two sets of cultures were set up side-by-side. One set was pulsed with 1uCi of tritiated thymidine at 24 hours and harvested at 72 hours to determine cell proliferation. In the second set of cultures, supernatants were collected at 72 hours and tested for peptide-specific cytokine production as determined by LiquiChip.

SJL/J mice [3] = assay: T cell and Treg counts in spleen and CNS by FACS, R-EAE with IL-10 or TGFb blockade; settings: day 44
Source text: On day 44 post disease induction, the rest of the mice were sacrificed and spleens and CNS were taken for cell counts and cell population analysis as described below.
4. Experimental stains (CD45, CD3, CD4, CD25, FoxP3, Nrp-1, and Helios)
9. Gating scheme for flow: Singlets (FSC-A vs. FSC-H)->Cells (SSC-A vs. FSC-A)->Live (VID stain negative cells)->CD45hi->CD3/CD4+->CD25/FoxP3+->Helios/Nrp-1

male DBA-1 mice = assay: Established collagen induced arthritis (CIA), macroscopic and histological scores
Method: Bovine type II collagen (CII) (RUNMC in house production, batch 03-04-08) at a concentration of 2 mg/ml in acetic acid 0.05M was emulsified in equal volumes of Freund's complete adjuvant (2 mg/ml of Mycobacterium tuberculosis strain H37Ra; Difco, Detroit, Mich.).
On day 0, 10-12 week old male DBA-1 mice (Janvier Elevage, France) (n=95) were immunized i.d. at the base of the tail with 100 μg of bovine CII. On day 21, mice received an intraperitoneal booster injection of 50 μg of CII dissolved in phosphate buffered saline (PBS), and the onset of arthritis occurred a few days after this booster.
Joint inflammation in each paw was scored visually, using a scale of 0-2 per paw with a maximal score of 8 per animal: 0=non inflamed, 1=mild inflammation, 1.5=marked inflammation, and 2=severe inflammation. Scoring was performed three times a week.
Treatment was started in established CIA early after onset of disease (i.e. therapeutic regimen), when the macroscopic scores per animal were between 0.25 and 1.25 (on a scale of 0-8). […] Histology was scored for inflammation and destruction on an arbitrary scale of 0-3, for five different parameters: […]
Joints were fixed for at least 4 days in 4% formaldehyde, decalcified in 5% formic acid, and subsequently dehydrated and embedded in paraffin. […] The severity of inflammation in the joints was scored on a scale of 0-3 (0=no cells, 1=mild cellularity, 2=moderate cellularity, and 3=maximal cellularity). […] Depletion of PG was determined using an arbitrary scale of 0-3, ranging from normal, fully stained cartilage to destained cartilage, fully depleted of PGs. Chondrocyte death was scored on a scale of 0-3 ranging from no loss of chondrocyte nuclei to complete empty cartilage surface. The degree of cartilage surface erosion was scored on a scale of 0-3, ranging from no damage to complete loss of articular cartilage. […] Histopathological changes in the joint were scored on three semiserial sections of the joint spaced 70 μm apart. […]

B1: C1ORF32 ECD-Fc (SEQ ID NO:42): human-mouse fusion protein: human C1ORF32 ECD fused to mouse immunoglobulin Fc (SEQ ID NO:42) (protein)
chain: LQVTVPDKKKVAMLFQPTVLRCHFSTSSHQPAVVQWKFKSYCQDRMGESLGMSSTRAQSLSKRNLEWDPYLDCLDSRRTVRVVASKQGSTVTLGDFYRGREITIVHDADLQIGKLMWGDSGLYYCIITTPDDLEGKNEDSVELLVLGRTGLLADLLPSFAVEIMGSENLYFQGSGEPRGPTIKPCPPCKCPAPNLLGGPSVFIFPPKIKDVLMISLSPIVTCVVVDVSEDDPDVQISWFVNNVEVHTAQTQTHREDYNSTLRVVSALPIQHQDWMSGKEFKCKVNNKDLPAPIERTISKPKGSVRAPQVYVLPPPEEEMTKKQVTLTCMVTDFMPEDIYVEWTNNGKTELNYKNTEPVLDSDGSYFMYSKLRVEKKNWVERNSYSCSVVHEGLHNHHTTKSFSRTPGK
modifications: Fusion protein human C1ORF32-ECD fused to mouse IgG2a Fc
disease induction / development (SJL/J mice [1]; 100 ug/dose i.p. 3x/wk 2 wks from time of cell transfer): complete abolishment of disease induction; also recorded: abolished disease development
clinical signs of the disease (SJL/J mice [1]; 100 ug/mouse i.p. 3x/wk 2 wks from onset of disease remission): robust inhibition of clinical signs
recall responses, cellular proliferation of splenocytes and lymph node cells [2]: decreased level of cellular proliferation
leukocytes and T cell counts in the CNS (CD45+, CD4+, CD25+/FoxP3+) (SJL/J mice [3]): pronounced decrease
clinical (macroscopic) scores of arthritis (male DBA-1 mice; 10 mg/kg i.p. 3x/wk 2 wks, p<0.001 vs mIgG2a): significantly reduced
overall outcome in three CIA studies (male DBA-1 mice; mouse, in vivo): excellent results in two studies and weak results in one study
